In patent publication US12534531 (MacroGenics, dated 2026):
Values belong to the binder of their own block, whether it stands above or below them.

Legend:
[1] = target: T1, human LAG-3 expressed on NSO cells (human, UniProt P18627 29-525); assay: FACS saturation binding to NSO cells expressing LAG-3; SM; SD 0.3430
T1 sequence: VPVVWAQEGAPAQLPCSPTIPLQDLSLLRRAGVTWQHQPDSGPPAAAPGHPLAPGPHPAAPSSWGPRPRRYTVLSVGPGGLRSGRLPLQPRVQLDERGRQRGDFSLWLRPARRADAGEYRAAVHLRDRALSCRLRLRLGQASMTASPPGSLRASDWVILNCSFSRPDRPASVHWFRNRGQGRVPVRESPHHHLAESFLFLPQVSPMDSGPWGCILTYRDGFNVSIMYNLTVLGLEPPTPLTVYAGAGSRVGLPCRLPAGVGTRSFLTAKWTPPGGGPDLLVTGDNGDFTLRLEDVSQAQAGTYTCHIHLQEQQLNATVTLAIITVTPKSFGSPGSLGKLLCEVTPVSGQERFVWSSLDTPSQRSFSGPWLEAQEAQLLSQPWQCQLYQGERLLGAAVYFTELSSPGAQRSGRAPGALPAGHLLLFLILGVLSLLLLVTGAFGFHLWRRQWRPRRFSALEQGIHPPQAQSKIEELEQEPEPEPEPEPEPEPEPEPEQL

[2] = target: T2, biotinylated-soluble human LAG-3-Fc fusion protein (human, UniProt P18627 23-450, biotinylated (site not stated)); assay: FACS: inhibition of shLAG-3-Fc binding to MHC II on Daudi cells (column head prints EC50); SM; SD 0.1409
T2 construct: whole entry named; also called shLAG-3; shLAG-3-Fc; not shown: Fc
T2 sequence: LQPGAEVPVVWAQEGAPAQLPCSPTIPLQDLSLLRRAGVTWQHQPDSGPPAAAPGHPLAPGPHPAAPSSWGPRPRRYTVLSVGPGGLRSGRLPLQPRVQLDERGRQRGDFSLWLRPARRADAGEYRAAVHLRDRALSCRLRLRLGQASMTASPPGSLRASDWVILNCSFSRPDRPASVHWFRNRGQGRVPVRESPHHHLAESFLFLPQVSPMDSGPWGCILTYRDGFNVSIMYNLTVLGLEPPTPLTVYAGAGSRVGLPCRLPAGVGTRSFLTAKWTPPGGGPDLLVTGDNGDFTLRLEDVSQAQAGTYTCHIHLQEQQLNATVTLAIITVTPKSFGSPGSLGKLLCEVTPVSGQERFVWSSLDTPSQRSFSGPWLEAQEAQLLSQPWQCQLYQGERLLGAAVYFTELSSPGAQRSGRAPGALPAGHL

[3] = target: T1, human LAG-3 expressed on NSO cells; assay: FACS saturation binding to NSO cells expressing LAG-3; SM; SD 0.1376
[4] = target: T2, biotinylated-soluble human LAG-3-Fc …; assay: FACS: inhibition of shLAG-3-Fc binding to MHC II on Daudi cells (column head prints EC50); SM; SD 0.1900
[5] = target: T1, human LAG-3 expressed on NSO cells; assay: FACS saturation binding to NSO cells expressing LAG-3; SM; SD 0.1660
[6] = target: T2, biotinylated-soluble human LAG-3-Fc …; assay: FACS: inhibition of shLAG-3-Fc binding to MHC II on Daudi cells (column head prints EC50); SM; SD 0.3407

EC50 [1]: 0.607 µM
IC50 [2]: 0.364 µM
B1: hLAG-3 mAb 1 (1.4) IgG1 (AA) (antibody, V domains shown)
VH: QVQLVQSGAEVKKPGASVKVSCKASGYTFTNYGMNWVRQAPGQGLEWMGWINTYTGESTYADDFEGRFVFSMDTSASTAYLQISSLKAEDTAVYYCARESLYDYYSMDYWGQGTTVTVSS
VL: DIVMTQTPLSLSVTPGQPASISCKSSQSLLHSDAKTYLNWLLQKPGQPPERLIYLVSELDSGVPDRFSGSGSGTDFTLKISRVEAEDVGVYYCWQGTHFPYTFGGGTKVEIK

EC50 [3]: 0.597 µM
IC50 [4]: 0.701 µM
B2: LAG-3 mAb A IgG4 (P) (antibody, V domains shown)
VH: QVQLQQWGAGLLKPSETLSLTCAVYGGSFSDYYWNWIRQPPGKGLEWIGEINHNGNTNSNPSLKSRVTLSLDTSKNQFSLKLRSVTAADTAVYYCAFGYSDYEYNWFDPWGQGTLVTVSS
VL: EIVLTQSPATLSLSPGERATLSCRASQSISSYLAWYQQKPGQAPRLLIYDASNRATGIPARFSGSGSGTDFTLTISSLEPEDFAVYYCQQRSNWPLTFGQGTNLEIK
notes: IgG4 (P); also called 25F7

EC50 [5]: 0.452 µM
IC50 [6]: 0.592 µM
B3: LAG-3 mAb A IgG1 (AA) (antibody, V domains shown)
VH: QVQLQQWGAGLLKPSETLSLTCAVYGGSFSDYYWNWIRQPPGKGLEWIGEINHNGNTNSNPSLKSRVTLSLDTSKNQFSLKLRSVTAADTAVYYCAFGYSDYEYNWFDPWGQGTLVTVSS
VL: EIVLTQSPATLSLSPGERATLSCRASQSISSYLAWYQQKPGQAPRLLIYDASNRATGIPARFSGSGSGTDFTLTISSLEPEDFAVYYCQQRSNWPLTFGQGTNLEIK
notes: IgG1 (AA)
